A value given as a limit tells only on which side of the number the result lay.

The record followed here is article PMC3855398.

The assay addresses hGle1B tagged with mCerulean3 (Cer3-hGle1B) or mVenus (Venus-hGle1B) (human) (UniProt Q53GS7). The experiment in a line: FRET or BRET. Background: Bioluminescence resonance energy transfer reports proximity on the nanometre scale.
Sequence of UniProt Q53GS7 (Q53GS7 whole entry): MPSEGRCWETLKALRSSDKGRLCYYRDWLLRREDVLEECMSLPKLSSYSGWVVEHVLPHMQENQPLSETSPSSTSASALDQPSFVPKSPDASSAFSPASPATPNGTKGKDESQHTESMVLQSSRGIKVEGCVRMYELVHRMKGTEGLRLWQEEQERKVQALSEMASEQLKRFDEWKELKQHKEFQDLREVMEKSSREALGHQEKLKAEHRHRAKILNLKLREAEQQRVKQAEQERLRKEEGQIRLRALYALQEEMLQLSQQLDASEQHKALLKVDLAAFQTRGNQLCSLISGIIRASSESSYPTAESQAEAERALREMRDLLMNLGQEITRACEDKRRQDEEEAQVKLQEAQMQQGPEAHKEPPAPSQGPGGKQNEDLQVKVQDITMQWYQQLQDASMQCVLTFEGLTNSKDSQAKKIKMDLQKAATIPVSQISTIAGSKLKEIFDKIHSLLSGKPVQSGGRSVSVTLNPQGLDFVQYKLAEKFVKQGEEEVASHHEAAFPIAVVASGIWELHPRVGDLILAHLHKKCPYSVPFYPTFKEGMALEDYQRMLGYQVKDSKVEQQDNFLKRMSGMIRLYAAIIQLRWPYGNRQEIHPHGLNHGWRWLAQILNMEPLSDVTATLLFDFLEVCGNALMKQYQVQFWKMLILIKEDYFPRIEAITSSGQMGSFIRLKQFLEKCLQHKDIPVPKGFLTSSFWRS

As to mCerulean3 alone, the FRET efficiency (cytoplasm and nucleoplasm) is below 1.25%; the normalized FRET (NFRET) signal (all locations) is below 4.08.
